In the supplement of paper PMC12783771:
± gives the standard deviation of the averaged measurements.

B1: library; a variant is named by its letters at X, in order (parent)
chain: MNIQIGELAKRTACPVVTIRFYEQEGLLPPPGRSRGNFRLYGEEHVERLQFIRHCRSLDMPLSDVRTLLSYRKRPDQDCGEVXMLLDEHIRQVESRIGALLELKHHLVELREACSGARPAQSCGILQXLSXCVCXTRGTTAHXSD

What was measured:
[1] = variants of: B1; assay: sfGFP reporter fluorescence (15 h) (µM FITC); higher = higher leak; details: library round: Round 2; ligand: none
Description: (§1)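 Cell-free biosensing: 1 µL Echo-assembled CFE reactions with linear PbrR variant templates (5 nM) and pPbrR-sfGFP reporter, with 1 µM Pb, 30 µM Zn or no ligand; endpoint sfGFP fluorescence after 15 h at 30 °C calibrated as µM FITC. Round 2 ML-predicted PbrR mutants; up to 3 biological replicates.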

[2] = variants of: B1; assay: sfGFP reporter fluorescence (15 h) (µM FITC); higher = stronger transcriptional activation; details: library round: Round 2
Description: as §1

Variant | sfGFP reporter fluorescence [1] | sfGFP reporter fluorescence ([2]; ligand: 1 µM Pb) | sfGFP reporter fluorescence ([2]; ligand: 30 µM Zn)
MNIQIGELAKRTACPVVTIRFYEQEGLLPPPGRSRGNFRLYGEEHVERLQFIRHCRSLDMPLSDVRTLLSYRKRPDQDCGEVNMLLDEHIRQVESRIGALLELKHHLIELREACSGARPAQSCGILQGLSYCVCPTRGTTAHPSD | 0.0743 ± 0.0068 | 0.149 ± 0.033 | 1.1 ± 0.074
MNIQIGELAKRTACPVVTIRFYEQEGLLPPPGRSRGNFRLYGEEHVERLQFIRHCRSLDMPLSDVRTLLSYRKRPDQDCGEVNMLLDEHIRQVESRIGALLELRHHLVELREACSGARPAQSCGILQGLSYCVCATRGTTAHPSD | 0.0664 ± 0.0054 | 0.0679 ± 0.0057 | 0.698 ± 0.11
MNIQIGELAKRTACPVVTIRFYEQEGLLPPPGRSRGNFRLYGEEHVERLQFIRHCRSLDMPLSDVRTLLSYRKRPDQDCGEVNMLLDEHIRQVESRIGALLELKHHLVELREACSGARPAQSCGILQGLSTCPCYTRGTTAHPSD | 0.0724 ± 0.0067 | 0.148 ± 0.0095 | 0.951 ± 0.42
MNIQIGELAKRTACPVVTIRFYEQEGLLPPPGRSRGNFRLYGEEHVERLQFIRHCRSLDMPLSDVRTLLSYRKRPDQDCGEVNMLLDEHIRQVESRIGALLELKHHLVELREACSGARPAQSCGILQGLSTCVCATRGTTAHTSD | 0.0539 ± 0.0037 | 0.0908 ± 0.0051 | 0.937 ± 0.052
MNIQIGELAKRTACPVVTIRFYEQEGLLPPPGRSRGNFRLYGEEHVERLQFIRHCRSLDMPLSDVRTLLSYRKRPDQDCGEVNMLLDEHIRQVESRIGALLELKHHLVELREACSGARPAQSCGILQHLSCCVCDTRGTTAHASD | 0.0569 ± 0.0056 | 0.0749 ± 0.0034 | 0.446 ± 0.063
MNIQIGELAKRTACPVVTIRFYEQEGLLPPPGRSRGNFRLYGEEHVERLQFIRHCRSLDMPLSDVRTLLSYRKRPDQDCGEVNMLLDEHIRQVESRIGALLELKHHLVELREACGGARPAQSCGILQGLSTCPCDTRGTTAHPSD | 0.0474 ± 0.0012 | 0.0633 ± 0.00085 | 0.461 ± 0.052
MNIQIGELAKRTACPVVTIRFYEQEGLLPPPGRSRGNFRLYGEEHVERLQFIRHCRSLDMPLSDVRTLLSYRKRPDQDCGEVNMLLDEHIRQVEGRIGALLELKHHLVELREACSGARPAQSCGILQGLSYCVCATRGTTAHPSD | 0.0664 ± 0.003 | 0.0795 ± 0.0044 | 1.03 ± 0.072
